Assay results from the supplement of paper PMC9170038.

System: MS2 coat protein
Test: apparent KD of MS2 coat protein; higher = weaker reporter binding
Settings: Eterna round: R107
Protocol: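 RNA-MaP round R107: designed RNA switches with theophylline, tryptophan, arginine or FMN aptamers are transcribed on-chip within common flanks. They are titrated with SNAP-549-labelled MS2 coat protein in RNA-MaP buffer (100 mM Tris pH 7.5, 80 mM KCl, 4 mM MgCl2), without ligand or with the indicated ligand. Median apparent KD per design.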

[1] = input ligand: theophylline 20 uM
[2] = input ligand: theophylline 2 mM
[3] = input ligand: tryptophan 2.4 mM

Sequence	apparent KD of MS2 coat protein (input ligand: arginine 13.2 mM) [µM]	apparent KD of MS2 coat protein (input ligand: none) [µM]	apparent KD of MS2 coat protein [1] [µM]	apparent KD of MS2 coat protein [2] [µM]	apparent KD of MS2 coat protein [3] [µM]
ACAUGAGGAUCACCCAUGUGGCGUCUUGAUACCAGACCCGAAGUAGUCCCUUGGCAGCAACUACGUGAGGGUCGCCCAUGUGUAG [k'kmullin]	0.0235	0.0304	0.0408	0.0409	0.0255
ACAUGAGGAUCACCCAUGUGUGUAAAUCCUCGAGGACCGGUACGGCCGCCACUCGAACGAGUGUAAGAUGAAUGUUACAUUCAUC [SS Trp A s2]	0.0708	–	0.134	0.117	–
ACAUGAGGAUCACCCAUGUGUGUAAGUCCUCGAGGACCGGUACGGCCGCCACUCGAACGAGUGAAGCCUGAUACUAAGUAUCAGG [SS Trp A s5]	0.0996	0.0154	0.0207	0.0144	0.0187
ACAUGAGGAUCACCCAUGUGUGUAAGUCCUCGAGGACCGGUACGGCCGCCACUCGAUUGAGUGUAAGUUGAAUGUAACAUUCAAC [whbob_SS_trypto A_2s10]	0.0164	–	0.0228	0.0181	–
ACAUGAGGAUCACCCAUGUUAUUUACCGAAGGAGCGGGUAUAUACCCAGGUAGGUCGCGGACAACAUGAGGAUCACCCACAUGAG [AstrosSSArgA#21]	0.0455	0.0285	0.0534	0.0714	0.0278
ACAUGAGGAUCCGAUACCAGCCACAUGAGGAUCACCCAUGUAGUACAUGAGGAUCACCCAGGCCCUUGGCAGCGGACAUGAGGAU [Exclusion - Theophylline B]	0.0959	–	0.331	–	0.149
ACAUGAGGGCGAAGGAGCGCGAACAUGAGGAUCACCCAUGUCUAUAUCCGUCCGCAUGUAUCGCAGGUAGGUCGCGCUGUUACUU [#13 Exclusion - Arginine B]	0.00899	0.0086	0.0114	0.0085	0.00852
ACAUGAGGGCGAAGGAGCGCGUACAUGAGGAUCACCCAUGUCUAUAUCCGUCCGCGUGUAACGCAGGUAGGUCGCGCUGUUAAUU [#14 Exclusion - Arginine B]	0.0154	0.016	0.0216	0.02	0.0162
ACAUUGCGCUCGGCCGCCACUGGCUAUAGAUUUAUAGCAUUAAUGAACAUGAGGAUCACCCAUGUCAGGACCGGGAGCGAACCAU [SSTryp B #8]	0.0121	–	0.0172	0.0132	–
ACAUUUAACUGAAGGAGCGUGAUAAACAUGAGGAUCACCCAUGUACCACAGAUUCUUAGAUCACAGGUAGGUCGCAGACUAAUGA [JR_ExcArginiB_Sub013]	0.0112	0.0117	0.0137	0.0126	0.0124
ACAUUUAACUGAAGGAGCGUGAUAUACAUGAGGAUCACCCAUGUGUCUUACAUGAAUAAUUCACAGGUAGGUCGCAGACUAAUGA [JR_ExcArginiB_Sub009]	0.0305	0.0267	0.0337	0.0394	0.0321
ACAUUUAACUGAAGGAGCGUGAUUAACAUGAGGAUCACCCAUGUAACUUAGAUGCUUAUAUCACAGGUAGGUCGCAGACUAAUGA [JR_ExcArginiB_Sub011]	0.0139	0.0136	0.0183	0.0149	0.0155
ACCUACACGGAGACGUGUAGGAGUAAUGAUACCAGCAUGGAGACAUGCCCUUGGCAGCGUUACAUGAGGAUCACCCAUGUAGGUU [ETHA #4]	0.0433	0.0436	0.059	0.0788	0.0431
